Assay results as given in the RNAGym collection of RNA variant scans (doi:10.1021/acssynbio.7b00057).

B1: Pistol ribozyme (parent)
chain: GGGUCGUUGUUCCAUAAUCGCGUGGAUAUGGCACGCAAGUUUCUACCGGGCACCGUAAAUGUCCGACUGGAGCCGUUCGGGCGGCUAUAAACAGACCUCAGGCCCGAAGCGUGGCGGCACCUGCCGCCGGUGGUAAAAAAGAUCGGAAGAGCACACGUCU

Variants of: B1
Experiment: aptazyme ON/OFF ratio, guanine; higher = stronger switching; co-transcriptional cleavage with and without guanine

Variant	aptazyme ON/OFF ratio
GGGUCGAUAUAACAUAAUCGCGUGGAUAUGGCACGCAAGUUUCUACCGGGCACCGUAAAUGUCCGACUGGAGCCGUUCGGGCGGCUAUAAACAGACCUCAGGCCCGAAGCGUGGCGGCACCUGCCGCCGGUGGUAAAAAAGAUCGGAAGAGCACACGUCU [U7A G9A U11A C12A]	1.34
GGGUCGGAUCUCCAUAAUCGCGUGGAUAUGGCACGCAAGUUUCUACCGGGCACCGUAAAUGUCCGACUGGAGCCGUUCGGGCGGCUAUAAACAGACCUCAGGCCCGAAGCGUGGCGGCACCUGCCGCCGGUGGUAAAAAAGAUCGGAAGAGCACACGUCU [U7G U8A G9U U10C]	3.13
GGGUCGAAACAAGAUAAUCGCGUGGAUAUGGCACGCAAGUUUCUACCGGGCACCGUAAAUGUCCGACUGGAGCCGUUCGGGCGGCUAUAAACAGACCUCAGGCCCGAAGCGUGGCGGCACCUGCCGCCGGUGGUAAAAAAGAUCGGAAGAGCACACGUCU [U7A U8A G9A U10C U11A C12A C13G]	1.06
GGGUCGUUCGCGCAUAAUCGCGUGGAUAUGGCACGCAAGUUUCUACCGGGCACCGUAAAUGUCCGACUGGAGCCGUUCGGGCGGCUAUAAACAGACCUCAGGCCCGAAGCGUGGCGGCACCUGCCGCCGGUGGUAAAAAAGAUCGGAAGAGCACACGUCU [G9C U10G U11C C12G]	1.17
GGGUCGAUCGAAUAUAAUCGCGUGGAUAUGGCACGCAAGUUUCUACCGGGCACCGUAAAUGUCCGACUGGAGCCGUUCGGGCGGCUAUAAACAGACCUCAGGCCCGAAGCGUGGCGGCACCUGCCGCCGGUGGUAAAAAAGAUCGGAAGAGCACACGUCU [U7A G9C U10G U11A C12A C13U]	1.07
GGGUCGCCUAUAUAUAAUCGCGUGGAUAUGGCACGCAAGUUUCUACCGGGCACCGUAAAUGUCCGACUGGAGCCGUUCGGGCGGCUAUAAACAGACCUCAGGCCCGAAGCGUGGCGGCACCUGCCGCCGGUGGUAAAAAAGAUCGGAAGAGCACACGUCU [U7C U8C G9U U10A C12A C13U]	1.2
GGGUCGUCCCGUAAUAAUCGCGUGGAUAUGGCACGCAAGUUUCUACCGGGCACCGUAAAUGUCCGACUGGAGCCGUUCGGGCGGCUAUAAACAGACCUCAGGCCCGAAGCGUGGCGGCACCUGCCGCCGGUGGUAAAAAAGAUCGGAAGAGCACACGUCU [U8C G9C U10C U11G C12U C13A]	1.05
GGGUCGAAAAAGGAUAAUCGCGUGGAUAUGGCACGCAAGUUUCUACCGGGCACCGUAAAUGUCCGACUGGAGCCGUUCGGGCGGCUAUAAACAGACCUCAGGCCCGAAGCGUGGCGGCACCUGCCGCCGGUGGUAAAAAAGAUCGGAAGAGCACACGUCU [U7A U8A G9A U10A U11A C12G C13G]	1.28
GGGUCGACCGGAAAUAAUCGCGUGGAUAUGGCACGCAAGUUUCUACCGGGCACCGUAAAUGUCCGACUGGAGCCGUUCGGGCGGCUAUAAACAGACCUCAGGCCCGAAGCGUGGCGGCACCUGCCGCCGGUGGUAAAAAAGAUCGGAAGAGCACACGUCU [U7A U8C G9C U10G U11G C12A C13A]	1.15
GGGUCGUAUGGGGAUAAUCGCGUGGAUAUGGCACGCAAGUUUCUACCGGGCACCGUAAAUGUCCGACUGGAGCCGUUCGGGCGGCUAUAAACAGACCUCAGGCCCGAAGCGUGGCGGCACCUGCCGCCGGUGGUAAAAAAGAUCGGAAGAGCACACGUCU [U8A G9U U10G U11G C12G C13G]	1.32
GGGUCGACGGGGAAUAAUCGCGUGGAUAUGGCACGCAAGUUUCUACCGGGCACCGUAAAUGUCCGACUGGAGCCGUUCGGGCGGCUAUAAACAGACCUCAGGCCCGAAGCGUGGCGGCACCUGCCGCCGGUGGUAAAAAAGAUCGGAAGAGCACACGUCU [U7A U8C U10G U11G C12G C13A]	1.08
GGGUCGUGCCUAUAUAAUCGCGUGGAUAUGGCACGCAAGUUUCUACCGGGCACCGUAAAUGUCCGACUGGAGCCGUUCGGGCGGCUAUAAACAGACCUCAGGCCCGAAGCGUGGCGGCACCUGCCGCCGGUGGUAAAAAAGAUCGGAAGAGCACACGUCU [U8G G9C U10C C12A C13U]	1.05
GGGUCGGUCCAUGAUAAUCGCGUGGAUAUGGCACGCAAGUUUCUACCGGGCACCGUAAAUGUCCGACUGGAGCCGUUCGGGCGGCUAUAAACAGACCUCAGGCCCGAAGCGUGGCGGCACCUGCCGCCGGUGGUAAAAAAGAUCGGAAGAGCACACGUCU [U7G G9C U10C U11A C12U C13G]	1.21
GGGUCGUGUCCAUAUAAUCGCGUGGAUAUGGCACGCAAGUUUCUACCGGGCACCGUAAAUGUCCGACUGGAGCCGUUCGGGCGGCUAUAAACAGACCUCAGGCCCGAAGCGUGGCGGCACCUGCCGCCGGUGGUAAAAAAGAUCGGAAGAGCACACGUCU [U8G G9U U10C U11C C12A C13U]	1.02
GGGUCGGCAGAGCAUAAUCGCGUGGAUAUGGCACGCAAGUUUCUACCGGGCACCGUAAAUGUCCGACUGGAGCCGUUCGGGCGGCUAUAAACAGACCUCAGGCCCGAAGCGUGGCGGCACCUGCCGCCGGUGGUAAAAAAGAUCGGAAGAGCACACGUCU [U7G U8C G9A U10G U11A C12G]	1.08
GGGUCGGCUCAGGAUAAUCGCGUGGAUAUGGCACGCAAGUUUCUACCGGGCACCGUAAAUGUCCGACUGGAGCCGUUCGGGCGGCUAUAAACAGACCUCAGGCCCGAAGCGUGGCGGCACCUGCCGCCGGUGGUAAAAAAGAUCGGAAGAGCACACGUCU [U7G U8C G9U U10C U11A C12G C13G]	1.31
GGGUCGUAAUUCGAUAAUCGCGUGGAUAUGGCACGCAAGUUUCUACCGGGCACCGUAAAUGUCCGACUGGAGCCGUUCGGGCGGCUAUAAACAGACCUCAGGCCCGAAGCGUGGCGGCACCUGCCGCCGGUGGUAAAAAAGAUCGGAAGAGCACACGUCU [U8A G9A C13G]	1.12
GGGUCGCCGAAGGAUAAUCGCGUGGAUAUGGCACGCAAGUUUCUACCGGGCACCGUAAAUGUCCGACUGGAGCCGUUCGGGCGGCUAUAAACAGACCUCAGGCCCGAAGCGUGGCGGCACCUGCCGCCGGUGGUAAAAAAGAUCGGAAGAGCACACGUCU [U7C U8C U10A U11A C12G C13G]	1.21

Variant	aptazyme ON/OFF ratio
GGGUCGUCUUGAUAUAAUCGCGUGGAUAUGGCACGCAAGUUUCUACCGGGCACCGUAAAUGUCCGACUGGAGCCGUUCGGGCGGCUAUAAACAGACCUCAGGCCCGAAGCGUGGCGGCACCUGCCGCCGGUGGUAAAAAAGAUCGGAAGAGCACACGUCU [U8C G9U U11G C12A C13U]	1.26
GGGUCGUCUUCUCAUAAUCGCGUGGAUAUGGCACGCAAGUUUCUACCGGGCACCGUAAAUGUCCGACUGGAGCCGUUCGGGCGGCUAUAAACAGACCUCAGGCCCGAAGCGUGGCGGCACCUGCCGCCGGUGGUAAAAAAGAUCGGAAGAGCACACGUCU [U8C G9U U11C C12U]	1.09
GGGUCGCCGUCCCAUAAUCGCGUGGAUAUGGCACGCAAGUUUCUACCGGGCACCGUAAAUGUCCGACUGGAGCCGUUCGGGCGGCUAUAAACAGACCUCAGGCCCGAAGCGUGGCGGCACCUGCCGCCGGUGGUAAAAAAGAUCGGAAGAGCACACGUCU [U7C U8C U11C]	2.42
GGGUCGCUCUGUAAUAAUCGCGUGGAUAUGGCACGCAAGUUUCUACCGGGCACCGUAAAUGUCCGACUGGAGCCGUUCGGGCGGCUAUAAACAGACCUCAGGCCCGAAGCGUGGCGGCACCUGCCGCCGGUGGUAAAAAAGAUCGGAAGAGCACACGUCU [U7C G9C U11G C12U C13A]	1.1
GGGUCGAUUAAACAUAAUCGCGUGGAUAUGGCACGCAAGUUUCUACCGGGCACCGUAAAUGUCCGACUGGAGCCGUUCGGGCGGCUAUAAACAGACCUCAGGCCCGAAGCGUGGCGGCACCUGCCGCCGGUGGUAAAAAAGAUCGGAAGAGCACACGUCU [U7A G9U U10A U11A C12A]	1.43
GGGUCGAUUCUGGAUAAUCGCGUGGAUAUGGCACGCAAGUUUCUACCGGGCACCGUAAAUGUCCGACUGGAGCCGUUCGGGCGGCUAUAAACAGACCUCAGGCCCGAAGCGUGGCGGCACCUGCCGCCGGUGGUAAAAAAGAUCGGAAGAGCACACGUCU [U7A G9U U10C C12G C13G]	1.29
GGGUCGGCGUACUAUAAUCGCGUGGAUAUGGCACGCAAGUUUCUACCGGGCACCGUAAAUGUCCGACUGGAGCCGUUCGGGCGGCUAUAAACAGACCUCAGGCCCGAAGCGUGGCGGCACCUGCCGCCGGUGGUAAAAAAGAUCGGAAGAGCACACGUCU [U7G U8C U11A C13U]	1.32
GGGUCGCUGGGAGAUAAUCGCGUGGAUAUGGCACGCAAGUUUCUACCGGGCACCGUAAAUGUCCGACUGGAGCCGUUCGGGCGGCUAUAAACAGACCUCAGGCCCGAAGCGUGGCGGCACCUGCCGCCGGUGGUAAAAAAGAUCGGAAGAGCACACGUCU [U7C U10G U11G C12A C13G]	1.16
GGGUCGAACACACAUAAUCGCGUGGAUAUGGCACGCAAGUUUCUACCGGGCACCGUAAAUGUCCGACUGGAGCCGUUCGGGCGGCUAUAAACAGACCUCAGGCCCGAAGCGUGGCGGCACCUGCCGCCGGUGGUAAAAAAGAUCGGAAGAGCACACGUCU [U7A U8A G9C U10A U11C C12A]	1.13
GGGUCGCUACACCAUAAUCGCGUGGAUAUGGCACGCAAGUUUCUACCGGGCACCGUAAAUGUCCGACUGGAGCCGUUCGGGCGGCUAUAAACAGACCUCAGGCCCGAAGCGUGGCGGCACCUGCCGCCGGUGGUAAAAAAGAUCGGAAGAGCACACGUCU [U7C G9A U10C U11A]	2.6
GGGUCGUGCGCCUAUAAUCGCGUGGAUAUGGCACGCAAGUUUCUACCGGGCACCGUAAAUGUCCGACUGGAGCCGUUCGGGCGGCUAUAAACAGACCUCAGGCCCGAAGCGUGGCGGCACCUGCCGCCGGUGGUAAAAAAGAUCGGAAGAGCACACGUCU [U8G G9C U10G U11C C13U]	1.04
GGGUCGAGUCCCUAUAAUCGCGUGGAUAUGGCACGCAAGUUUCUACCGGGCACCGUAAAUGUCCGACUGGAGCCGUUCGGGCGGCUAUAAACAGACCUCAGGCCCGAAGCGUGGCGGCACCUGCCGCCGGUGGUAAAAAAGAUCGGAAGAGCACACGUCU [U7A U8G G9U U10C U11C C13U]	1.07
GGGUCGUGGAUCCAUAAUCGCGUGGAUAUGGCACGCAAGUUUCUACCGGGCACCGUAAAUGUCCGACUGGAGCCGUUCGGGCGGCUAUAAACAGACCUCAGGCCCGAAGCGUGGCGGCACCUGCCGCCGGUGGUAAAAAAGAUCGGAAGAGCACACGUCU [U8G U10A]	1.15
GGGUCGGUGGACAAUAAUCGCGUGGAUAUGGCACGCAAGUUUCUACCGGGCACCGUAAAUGUCCGACUGGAGCCGUUCGGGCGGCUAUAAACAGACCUCAGGCCCGAAGCGUGGCGGCACCUGCCGCCGGUGGUAAAAAAGAUCGGAAGAGCACACGUCU [U7G U10G U11A C13A]	1.11
GGGUCGUCCCUCUAUAAUCGCGUGGAUAUGGCACGCAAGUUUCUACCGGGCACCGUAAAUGUCCGACUGGAGCCGUUCGGGCGGCUAUAAACAGACCUCAGGCCCGAAGCGUGGCGGCACCUGCCGCCGGUGGUAAAAAAGAUCGGAAGAGCACACGUCU [U8C G9C U10C C13U]	1.12
GGGUCGCCCAGCAAUAAUCGCGUGGAUAUGGCACGCAAGUUUCUACCGGGCACCGUAAAUGUCCGACUGGAGCCGUUCGGGCGGCUAUAAACAGACCUCAGGCCCGAAGCGUGGCGGCACCUGCCGCCGGUGGUAAAAAAGAUCGGAAGAGCACACGUCU [U7C U8C G9C U10A U11G C13A]	1.13
GGGUCGUUAUUGCAUAAUCGCGUGGAUAUGGCACGCAAGUUUCUACCGGGCACCGUAAAUGUCCGACUGGAGCCGUUCGGGCGGCUAUAAACAGACCUCAGGCCCGAAGCGUGGCGGCACCUGCCGCCGGUGGUAAAAAAGAUCGGAAGAGCACACGUCU [G9A C12G]	1.71
GGGUCGAGUAUCAAUAAUCGCGUGGAUAUGGCACGCAAGUUUCUACCGGGCACCGUAAAUGUCCGACUGGAGCCGUUCGGGCGGCUAUAAACAGACCUCAGGCCCGAAGCGUGGCGGCACCUGCCGCCGGUGGUAAAAAAGAUCGGAAGAGCACACGUCU [U7A U8G G9U U10A C13A]	1.36
